Data: patent US8173771B2, “Humanin receptor or humanin-like polypeptide receptor” (Keio Univeristy, priority 2005, dated 2012)

Molecular target: T1, G-CSFR/gp130 chimera proteins (Homo sapiens, UniProt P40189+Q99062)
T1 construct: the extracellular domain of the human G-CSF receptor fused to the full transmembrane domain; expressed in transfected cells; host or cells: F11 cells
T1 sequence (Q99062+P40189 with tags, fused parts or gaps): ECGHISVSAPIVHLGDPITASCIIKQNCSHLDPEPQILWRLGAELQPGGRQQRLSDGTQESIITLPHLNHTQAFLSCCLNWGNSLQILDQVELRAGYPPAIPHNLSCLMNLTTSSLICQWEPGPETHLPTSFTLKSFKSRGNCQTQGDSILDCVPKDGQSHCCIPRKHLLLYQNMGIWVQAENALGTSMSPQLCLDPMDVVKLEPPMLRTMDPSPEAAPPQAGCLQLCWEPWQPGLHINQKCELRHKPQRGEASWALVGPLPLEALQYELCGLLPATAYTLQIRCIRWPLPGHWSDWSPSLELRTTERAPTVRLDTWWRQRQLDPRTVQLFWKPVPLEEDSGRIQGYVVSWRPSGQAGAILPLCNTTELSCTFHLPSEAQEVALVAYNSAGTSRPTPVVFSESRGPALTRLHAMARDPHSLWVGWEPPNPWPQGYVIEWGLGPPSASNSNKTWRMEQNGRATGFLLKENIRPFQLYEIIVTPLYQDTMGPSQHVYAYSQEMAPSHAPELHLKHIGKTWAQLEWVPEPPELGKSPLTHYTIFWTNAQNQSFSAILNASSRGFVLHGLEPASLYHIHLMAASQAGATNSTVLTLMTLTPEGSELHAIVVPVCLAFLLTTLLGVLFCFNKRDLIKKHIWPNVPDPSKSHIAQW
Experiment: G-CSF stimulation of G-CSFR/gp130 chimera proteins in F11 cells, cell mortality by Trypan blue exclusion
Format: cell-based
Settings: 100 nM; G-25 expressed
Protocol: B) F11 cells were transfected with 0.5 μg of the pcDNA3 vector or pcDNA3-APP in association with 0.5 μg of the pEFBos vector or the pEFBos vectors encoding the extracellular domain of the human G-CSF receptor fused to the full transmembrane domain and a C-terminally truncated intracytoplasmic domain of gp130 (named “G-CSFR/gp130”). G-CSFR/gp130 (277) contains the full intracytoplasmic domain of gp130 corresponding to amino acids 1-277, while G-CSFR/gp130 (25), (68), and (133) contain the intracytoplasmic domains corresponding to amino acids 1-25, 1-68, and 1-133, respectively. At 24 hr after transfection, the cells were added with indicated amounts of human G-CSF. Cell mortality was determined by Trypan blue exclusion assay at 72 hr after transfection. The results of immunoblot analysis of the expression of […] are shown in photos.
C) Instead of the pcDNA3-V6421-APP vector, pcDNA3-K595 N/M596L-APP (NL-APP), M146L-PS1 and N141-I-PS2 vectors were used to do the same experiments as in FIG. 2A. The results of immunoblot analysis of the expression of NL-APP, M146L-PS1 and N141-I-PS2 are shown in photos.
D) F11 cells were transfected with 0.5 μg of the pEFBos vector or pEF-G85R-SOD1 in association with 0.5 μg of the pEFBos vector or each pEFBos vector encoding G-CSFR/gp130 (277) or G-CSFR/gp130 (25). At 24 hr after transfection, the cells were added with indicated amounts of human G-CSF. Cell mortality was determined by Trypan blue exclusion assay at 72 hr after transfection. The results of the expression of G85R-SOD1, which were confirmed by the immunoblot analysis, are shown in photos.
Neurohybrid F11 cells and pcDNA3 vectors encoding V642I-APP, K595N/M596L-APP (NL-APP), M146L-PS1, and N141I-PS2 cDNA were prepared as already described (Hashimoto et al, 2000, 2001a, 2003). pCAG-human gp130 and pCAG-human gp130 ED (the extracellular domain of human gp130) were prepared as described (Kumanogoh et al., 1997). pcDNA3 vectors encoding the extracellular domain of the G-CSF receptor fused to the full-length transmembrane domain and various portions of the intracellular domains of human gp130, were prepared as described (Fukada et al, 1996). The intracellular domain of gp130 was C-terminally truncated. A chimera protein named G-277 contained a 277 amino acid-long full intracellular domain of gp130 (SEQ ID NO:35), while G-195, G-133, G-68, and G-25 contained the amino acids 1-195 (SEQ ID NO:36), 1-133 (SEQ ID NO:37), 1-68 (SEQ ID NO:38), and 1-25 (SEQ ID NO:39) intracellular portions, respectively. C-terminally myc-tagged human WSX-1 and myc-tagged mouse CREME9 cDNAs were amplified from human and mouse embryo cDNA (BioChain) by PCR using sets of sense primers and antisense primers: 5′-[…]-3′ (SEQ ID NO:3) and 5′-[…]-3′ (SEQ ID NO:4) for human WSX-1; 5′-[…]-3′ (SEQ ID NO:5); and 5′-[…]-3′ (SEQ ID NO:6) for mouse CREME9. Plasmids encoding C-terminally V5-tagged human CNTF-R (V %-CNTF-R) and rat IL-6R (pUCM18-rat IL-6R) were purchased from Invitrogen and American Culture Collection, respectively. A pEFBos vector comprising familial ALS (FALS) gene G85R-SOD1 was kindly provided by Dr. Shoji Tsuji. Cosmid of human wild […] was constructed by inserting a full-length gp130 into a SwaI site of pAxCAwt (TaKaRa).
The transfection procedures were as described (Hashimoto et al, 2000, 2001a, 2003). F11 cells, seeded at 7×10^4/well in 6-well dishes, were transfected with indicated vectors. Transfection efficiency in these protocols has been determined to be invariably around 70%. At 72 hrs after transfection, the Trypan blue exclusion assay and LDH assay were performed as a cell-death assay and the WST-8 assay was performed as cell-viability assays (Hashimoto et al, 2000, 2001a b, 2003). HN was added to the culture medium usually at 5 hrs after transfection, but in some cases at 24 hrs after transfection.

B1: G-CSF: human G-CSF, ligand stimulating G-CSFR/gp130 chimera proteins (protein, UniProt P09919 31-207, looked up)
Granulocyte …: TPLGPASSLPQSFLLKCLEQVRKIQGDGAALQEKLVSECATYKLCHPEELVLLGHSLGIPWAPLSSCPSQALQLAGCLSQLHSGLFLYQGLLQALEGISPELGPTLDTLQLDVADFATTIWQQMEELGMAPALQPTQGAMPAFASAFQRRAGGVLVASHLQSFLEVSYRVLRHLAQP
prevention of NL-APP-, M146L-PS1-, N141I-PS2-mediated neuronal cell death: not
